T1: full-length human TIGIT on the cell membrane (CHO-K-TIGIT cells; TIGIT-Jurkat cells) (human) (UniProt Q495A1)
T1 sequence (looked up): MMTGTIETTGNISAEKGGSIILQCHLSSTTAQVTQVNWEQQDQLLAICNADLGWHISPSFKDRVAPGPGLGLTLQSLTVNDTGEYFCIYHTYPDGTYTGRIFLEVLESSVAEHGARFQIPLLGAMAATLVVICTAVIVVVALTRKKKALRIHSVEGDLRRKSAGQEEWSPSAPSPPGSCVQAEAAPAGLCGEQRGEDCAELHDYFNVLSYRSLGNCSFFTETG

T2: recombinant human TIGIT (Human TIGIT His, Sino Biological, 10917-H08H) (human, UniProt Q495A1 22-138)
T2 construct: range 1-138; Bought protein; also called recombinant human TIGIT antigen; recombinant human TIGIT protein; not shown: C-terminal histidine tag
T2 sequence (looked up): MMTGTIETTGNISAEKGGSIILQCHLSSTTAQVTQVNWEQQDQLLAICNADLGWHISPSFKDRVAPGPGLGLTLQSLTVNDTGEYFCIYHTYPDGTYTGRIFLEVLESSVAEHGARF

T3: full-length human TIGIT on the cell membrane (CHO-K-TIGIT cells; TIGIT-Jurkat cells) (human, UniProt Q495A1 22-244)
T3 construct: whole, on cells; Also used here for TIGIT on human PBMCs in the IFN-gamma assay; also called CHO-TIGIT
T3 sequence (looked up): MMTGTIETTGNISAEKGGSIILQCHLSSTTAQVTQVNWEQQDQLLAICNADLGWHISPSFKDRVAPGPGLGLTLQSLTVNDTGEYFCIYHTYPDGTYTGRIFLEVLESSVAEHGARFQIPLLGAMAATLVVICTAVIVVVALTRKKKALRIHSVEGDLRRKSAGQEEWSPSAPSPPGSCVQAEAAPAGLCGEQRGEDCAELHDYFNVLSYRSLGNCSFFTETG

B1: humanized anti-TIGIT monoclonal antibody P03489 (antibody, V domains shown)
VH: QVQLVQSGAEVKKPGASVKVSCKASGYTFISYNIYWVRQAPGQGLEWMGGVNPSNGNTNFNENFQGRVTMTVDTSISTAYMELSRLRSDDTAVYYCTRGNYYGYEFAYWGQGTTVTVSS
VL: DIQMTQSPSSMSASVGDRVTITCKASQHVSTAVAWYQQKPGKAPKLLIYSPSYRYTGVPSRFSGSGSGTDFTFTISSVQPEDIATYYCQQHYSTPWTFGGGTKLEIK
notes: Only variable domains are tied to P03489 itself; HC2/LC2 of the fusion proteins derive from it
B2: human-mouse chimeric TIGIT monoclonal antibody 7103-01 (hFc) (antibody, from a related filing, V domains shown)
VH: QVQLQQPGAELVKPGASVKLSCKASGYTFISYNIYWVKQRPGQGLEWIGGVNPSNGNTNFNENFKSKATLTVDKSSSTAYMQLSSLTSDDSAVYFCTRGNYYGYEFAYWGQGTLVTVSA
VL: DIVMTQSHKFMSTSVGDRVSITCKASQHVSTAVAWYQQKPGQSPKLLIYSPSYRYTGVPDRFTGSGSGTDFTFTISSVQAEDLAVYYCQQHYSTPWTFGGGTKLEIK
B3: human-mouse chimeric TIGIT monoclonal antibody 7103-07 (hFc) (antibody, from a related filing, V domains shown)
VH: EVQVVESGGGLVKPGGTLKLSCAASGFTFSTYAMSWVRQSPEQRLEWVAEISSGGSHTFYSDTVTGRFTISRDNAQNTLYLEMNSLRSEDTAMYYCARKTLDYYALDYWGQGTSVTVSS
VL: DVQITQSPSYLAASPGETITINCRASKSISKYLAWYQEKPGKTNKLLIYSGSRLQSGIPSKFSGSGYGTDFTLTISSLEPEDFAMYYCQQHNEYPWTFGGGTKVEIK
B4: humanized anti-TIGIT monoclonal antibody P03479 (antibody, V domains shown)
VH: EVQVVESGGGLVKPGGSLRLSCAASGFTFSTYAMSWVRQAPGKGLEWVAEISSGGSHTFYADTVKGRFTISRDNAKNTLYLQMNSLRAEDTAVYYCARKTLDYYALDYWGQGTTVTVSS
VL: DVQITQSPSYLSASVGDRVTINCRASKSISKYLAWYQQKPGKAPKLLIYSGSRLQSGIPSRFSGSGYGTDFTLTISSLQPEDFATYYCQQHNEYPWTFGGGTKLEIK
notes: Only variable domains are tied to P03479 itself; HC1/LC1 of the fusion proteins derive from it

Assays:
[1] = target: T1, full-length human TIGIT on the cell membrane (CHO-K-TIGIT cells; TIGIT-Jurkat cells) (human); assay: cell-based or functional assay
[2] = target: T2, recombinant human TIGIT (Human TIGIT …); assay: ELISA on recombinant human TIGIT protein
[3] = target: recombinant human TIGIT (Human TIGIT His, Sino Biological, 10917-H08H) (human) (UniProt Q495A1); assay: BLI (GATOR), antibody on human antibody capture probe, TIGIT-His 40-10 nM
[4] = target: T3, full-length human TIGIT on the cell …; assay: flow cytometry on TIGIT-Jurkat cells
Protocol: The binding activity of the anti-TIGIT antibody-IL2 fusion proteins to TIGIT on the cell membrane was tested using flow cytometry. A Jurkat cell line stably expressing human TIGIT was first established. The full-length human TIGIT gene (Sinobio) was amplified by PCR and cloned into the mammalian cell expression vector pcDNA3.1 (Invitrogen), using Not I and Xba I as cloning enzymes. The TIGIT expression plasmid was transfected into Jurkat cells to construct a stable Jurkat cell line expressing TIGIT (TIGIT-Jurkat).
The flow cytometry study method for the binding of TIGIT antibody-IL2 fusion proteins to cell membrane-bound TIGIT is summarized as follows: FACS buffer (1×PBS+0.5% BSA solution) was prepared. The required number of TIGIT-Jurkat cells, about 1×10⁵ to 5×10⁵ cells per sample, was taken and incubated with HC1-IL2 wt/LC1 (ART-Ig) and HC1-IL2mut/LC1 (ART-Ig) diluted to a certain ratio in FACS buffer, approximately 100 μL, at 4° C. for 30 minutes. After washing the cells once with FACS buffer, they were resuspended in FITC-conjugated anti-human IgG (Abcam: 6854) diluted in FACS buffer and incubated at 4° C. for 30 minutes. Finally, after washing the cells with FACS buffer, they were resuspended in 200 μL of FACS buffer for analysis. The parent TIGIT antibody P03479 was used as a control.

Row | Molecule | Kd [3] [nM] | koff [3] [s⁻¹] | kon [3] [M⁻¹ s⁻¹] | also measured
1 | Tiragolumab (antibody) | – | – | – | IFNγ release from PHA-activated PBMCs, increase [1]: 16%
2 | B1 | – | – | – | EC50 [2]: 0.5 nM
3 | B2 | 1.73 | 0.000951 | 549000 | –
4 | B3 | 2.96 | 0.00169 | 573000 | –
5 | B4 | – | – | – | EC50 [4]: 0.26 µg/mL
